Target: RUNX1 (Homo sapiens, UniProt Q01196)
Assay: gcPBM; 2 nM RUNX1
Details: tags: N-terminal GST (pDEST15), kept (PMC6008103); label: surface-attached array probe

Chain of RUNX1 (Q01196 whole entry): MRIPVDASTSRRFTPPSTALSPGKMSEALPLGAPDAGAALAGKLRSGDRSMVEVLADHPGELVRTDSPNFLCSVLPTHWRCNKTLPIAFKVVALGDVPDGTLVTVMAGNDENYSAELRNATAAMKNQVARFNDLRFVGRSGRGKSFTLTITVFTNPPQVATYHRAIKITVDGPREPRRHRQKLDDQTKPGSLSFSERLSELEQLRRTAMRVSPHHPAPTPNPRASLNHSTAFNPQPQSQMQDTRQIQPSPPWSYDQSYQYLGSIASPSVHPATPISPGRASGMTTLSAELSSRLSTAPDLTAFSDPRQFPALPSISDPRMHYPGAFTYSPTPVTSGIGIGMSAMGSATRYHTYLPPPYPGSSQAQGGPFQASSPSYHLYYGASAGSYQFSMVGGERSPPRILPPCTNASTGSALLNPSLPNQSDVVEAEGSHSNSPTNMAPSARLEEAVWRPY

Binder	binding signal
Table S3 B row 2109 (dsDNA) DNA 1: ATGTCAGTAACCACAAACGAGCCACAGCATAAGAAC DNA 2: GTTCTTATGCTGTGGCTCGTTTGTGGTTACTGACAT	5490 PBM fluorescence, median of replicate spots
Table S3 B row 533 (dsDNA) DNA 1: AGTTGTGAAACCACAAAACACAGAAAGGAGGTGGTC DNA 2: GACCACCTCCTTTCTGTGTTTTGTGGTTTCACAACT	5640 PBM fluorescence, median of replicate spots
Table S3 B row 2125 (dsDNA) DNA 1: CAGGCTGCGGTTGAAATGCATCAGCTCTTTCGTGCC DNA 2: GGCACGAAAGAGCTGATGCATTTCAACCGCAGCCTG	4740 PBM fluorescence, median of replicate spots
Table S3 B row 2890 (dsDNA) DNA 1: CGGTCTGACCACAAACTCTGCCTTACGGCAAGGCTG DNA 2: CAGCCTTGCCGTAAGGCAGAGTTTGTGGTCAGACCG	5700 PBM fluorescence, median of replicate spots
Table S3 B row 646 (dsDNA) DNA 1: GCTCAAACAATAACCACAACACTTCATGCCTCTCTC DNA 2: GAGAGAGGCATGAAGTGTTGTGGTTATTGTTTGAGC	5040 PBM fluorescence, median of replicate spots
Table S3 B row 1304 (dsDNA) DNA 1: TCTGCTGCTTCTGTGGTTTACGGAATTTGTAACCCT DNA 2: AGGGTTACAAATTCCGTAAACCACAGAAGCAGCAGA	5370 PBM fluorescence, median of replicate spots
Table S3 B row 2874 (dsDNA) DNA 1: TCAGTGCGGTCAGGGAGTCTGTACTGCCTGGATGGC DNA 2: GCCATCCAGGCAGTACAGACTCCCTGACCGCACTGA	5600 PBM fluorescence, median of replicate spots
Table S3 B row 2281 (dsDNA) DNA 1: ACCCCAAACCCACAAACCCACCTGAAGGAACCAACT DNA 2: AGTTGGTTCCTTCAGGTGGGTTTGTGGGTTTGGGGT	5110 PBM fluorescence, median of replicate spots
Table S3 B row 2419 (dsDNA) DNA 1: GGCTACAGCAACCGCAAGGCATCACGGAGGTCGTAG DNA 2: CTACGACCTCCGTGATGCCTTGCGGTTGCTGTAGCC	5220 PBM fluorescence, median of replicate spots
Table S3 B row 2473 (dsDNA) DNA 1: CCCACCCAGCAAGCCGTCCTAACCACAACAGCCCTC DNA 2: GAGGGCTGTTGTGGTTAGGACGGCTTGCTGGGTGGG	5020 PBM fluorescence, median of replicate spots
Table S3 B row 1595 (dsDNA) DNA 1: CAGTAGGCTGCGGTTGCGCGCGCCGGGTGTGGGCCC DNA 2: GGGCCCACACCCGGCGCGCGCAACCGCAGCCTACTG	5670 PBM fluorescence, median of replicate spots
Table S3 B row 2350 (dsDNA) DNA 1: CCTGTCTTGTGGTTAAGTCAAGGCAGGCAATGCTTT DNA 2: AAAGCATTGCCTGCCTTGACTTAACCACAAGACAGG	5190 PBM fluorescence, median of replicate spots
Table S3 B row 207 (dsDNA) DNA 1: GGCTCAAAACCACAGAGAAGCCTCCTATAGTGGGAT DNA 2: ATCCCACTATAGGAGGCTTCTCTGTGGTTTTGAGCC	5720 PBM fluorescence, median of replicate spots
Table S3 B row 934 (dsDNA) DNA 1: TCAGAACCGCAGACGTGGCCCTGCGTGGCTTCAGGC DNA 2: GCCTGAAGCCACGCAGGGCCACGTCTGCGGTTCTGA	4860 PBM fluorescence, median of replicate spots
Table S3 B row 2453 (dsDNA) DNA 1: GCCCTGTGGTTTTCTGAGGCCCCCGAGGAGGAGGTG DNA 2: CACCTCCTCCTCGGGGGCCTCAGAAAACCACAGGGC	5060 PBM fluorescence, median of replicate spots
Table S3 B row 3940 (dsDNA) DNA 1: TCTCTAGTTCCCATTATTTCTGTGGTTAATTTCACC DNA 2: GGTGAAATTAACCACAGAAATAATGGGAACTAGAGA	5800 PBM fluorescence, median of replicate spots
Table S3 B row 1458 (dsDNA) DNA 1: TTCTCCACTGCCTTCTTTACCTCACCTACCACATAA DNA 2: TTATGTGGTAGGTGAGGTAAAGAAGGCAGTGGAGAA	5560 PBM fluorescence, median of replicate spots
Table S3 B row 3915 (dsDNA) DNA 1: CACCTGACCACAAGGCACACGAAGATCCTTATCACA DNA 2: TGTGATAAGGATCTTCGTGTGCCTTGTGGTCAGGTG	5610 PBM fluorescence, median of replicate spots

Reference: publication PMC10681739, “High-throughput data and modeling reveal insights into the mechanisms of cooperative DNA-binding by transcription factor proteins”
